{
  "source": "patent US20150018409A1",
  "about": "“CHIMERIC POLYPEPTIDES AND THEIR USE” (ADRIACELL S.P.A., priority 2003, published 2015)",
  "molecules": {"B1": {"name": "SCPVUTAT: single chain PvuII endonuclease (aa 1-157, GSGG linker, aa 2-157) fused to HIV Tat peptide and six histidine tag; SEQ ID NO:2 (protein, listed as Proteus vulgaris)", "chain": "MSHPDLNKLLELWPHIQEYQDLALKHGINDIFQDNGGKLLQVLLITGLTVLPGREGNDAVDNAGQEYELKSINIDLTKGFSTHHHMNPVIIAKYRQVPWIFAIYRGIAIEAIYRLEPKDLEFYYDKWERKWYSDGHKDINNPKIPVKYVMEHGTKIYGSGGSHPDLNKLLELWPHIQEYQDLALKHGINDIFQDNGGKLLQVLLITGLTVLPGREGNDAVDNAGQEYELKSINIDLTKGFSTHHHMNPVIIAKYRQVPWIFAIYRGIAIEAIYRLEPKDLEFYYDKWERKWYSDGHKDINNPKIPVKYVMEHGTKIYGSYGRKKRRQRRRGGSHHHHHH"}},
  "key": {"[1]": {"tested_on": "neuroblasoma cell lines (IMR32, LAN5, GI-LIN) and primary neuroblastoma cell isolates", "conditions": "upon treatment with SCPVUTAT", "protocol": "For the analysis the DNA content was assayed with FACS after staining of the cells with propidium J^−."}, "[2]": {"tested_on": "AT-5 cells (mutated for ATM)", "experiment": "FACS analysis of DNA content / cell cycle distribution", "assay_type": "cell-based", "conditions": "incubation for 36 hours (25 nM, 100 nM)", "protocol": "FIG. 8. Induction of Cell Cycle Block and Clonogenic Activity by […] of Cells Mutated for ATM (AT-5) in Comparison to Non Mutated Cells (MRC-5). • A) Distribution of DNA content distribution during the cell cycle detected by FACS analysis of AT-5 cells after 36 hours of […] treatment (25 nM, 100 nM), or with adriamycin (0.02 μg/ml; ADRIAMYCIN), or with SC34 (100 nM), and as control from non treated cells. The histograms represent DNA content relative to the cell-numbers; the panel on the right indicates the percentage of the corresponding distributions of the various cell cycle phases as calculated with the MODFIT™ program-package. • B) Colony forming assay with cell lines mutated for ATM and induced for DNA damage by […].\nThe cell cycle response to DSB's induced by […] treatment were analysed in p53 positive or negative cells. […] Incubation for 36 hours of the cell lines mutated for ATM (AT-5) with […] results in a transient retardation of the cell cycle, as was determined by a DNA content FACS analysis. […] A single addition of […] for 60 minutes to the AT-5 cells was sufficient to induce cell cycle stop after 24 hours (FIG. 8A) and finally leads to cell death, obtained from not correctly ligated DNA, and consequently, the clonogenic activity after a single treatment with […] for 60 minutes was below 0.02% for AT-5 cells. […]"}},
  "data": [
    {"molecule": "B1", "values": [
      {"measurement": "induction of apoptosis", "setting": "[1]", "result": "significant amount of apoptosis was induced"},
      {"measurement": "change of cell cycle distribution (DNA content)", "setting": "[2]", "result": "strong increase in 4N G2 DNA content"}
    ]}
  ]
}
